Reference: article PMC13038408

B1: RSVF-multi-4 (designed binder)
chain: MKLVIARVKSPKVKRLSEEDIEKIKSALKSTNKAVVTIKDENGEEIEVEVRLLTLEEALKYINDLPISNDAKKLMSNNIHKALEPGRTVVFGPEGCEERDKNRGIIKTFSTDVKLDETYFFFRVE
B2: RSVF-multi-3 (designed binder)
chain: DDLVDIFLRAFAKAAKVTRFDKNRGIIKTFSEEETEKLFKSLTEEEVEKIESALKSTNKAVVVLGDGDIEIEIDLDKLYALINDLDISNDQKKEMSNNFFEYLRKIAKK

Molecular target: RSV90 IgG (human)
Test: SPR

RSV90 IgG (human), sequence (heavy, as listed by the source, chain 1 of 2): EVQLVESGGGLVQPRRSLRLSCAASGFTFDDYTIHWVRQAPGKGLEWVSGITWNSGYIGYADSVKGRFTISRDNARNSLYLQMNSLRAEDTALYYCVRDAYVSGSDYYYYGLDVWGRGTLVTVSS
RSV90 IgG (human), sequence (light, as listed by the source, chain 2 of 2): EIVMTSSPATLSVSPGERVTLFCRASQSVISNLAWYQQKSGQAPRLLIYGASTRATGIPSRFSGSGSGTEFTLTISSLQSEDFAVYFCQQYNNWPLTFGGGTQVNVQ

Row | Binder | Kd [µM]
1 | B1 | > 10
2 | B2 | > 10
